Assay results taken from publication PMC4938175, “Conserved Sequence Preferences Contribute to Substrate Recognition by the Proteasome*^([image sbox.jpg])” (The Journal of Biological Chemistry, 2016).

Target: purified S. cerevisiae proteasome (S. cerevisiae)
Test: competitive inhibition of proteasomal degradation of a fluorescent substrate; apparent Ki; DHFR-tail competitor varied, UbL-GFP-95 substrate, 40 nM purified yeast proteasome; loss of GFP fluorescence in 384-well plates; 30 °C (methods; the legend of Figure 7 says room temperature); 50 mM Tris, 5 mM MgCl2, 2.5% glycerol, 1 mM ATP, 4 mM DTT, 0.2 mg/ml BSA, 10 mM creatine phosphate, 0.1 mg/ml creatine kinase, pH 7.5; …
Conditions: both partners purified

B1: DHFR-35 (other)
chain: MISLIAALAVDRVIGMENAMPWNLPADLAWFKRNTLNKPVIMGRHTWESIGRPLPGRKNIILSSQPGTDDRVTWVKSVDEAIAACGDVPEIMVIGGGRVYEQFLPKAQKLYLTHIDAEVEGDTHFPDYEPDDWESVFSEFHDADAQNSHSYCFEILERRPRLRYQPLLRISQNCEAAILRASQTRLNTIHHHHHH
  Ki: 36 ± 6 µM

B2: DHFR-eRR (other)
chain: MISLIAALAVDRVIGMENAMPWNLPADLAWFKRNTLNKPVIMGRHTWESIGRPLPGRKNIILSSQPGTDDRVTWVKSVDEAIAACGDVPEIMVIGGGRVYEQFLPKAQKLYLTHIDAEVEGDTHFPDYEPDDWESVFSEFHDADAQNSHSYCFEILERRPRGGGGAWLLPVSLVRRRTTLAPNTQTASPRALADS
  Ki: 36 ± 5 µM

B3: DHFR-GRR (other)
chain: MISLIAALAVDRVIGMENAMPWNLPADLAWFKRNTLNKPVIMGRHTWESIGRPLPGRKNIILSSQPGTDDRVTWVKSVDEAIAACGDVPEIMVIGGGRVYEQFLPKAQKLYLTHIDAEVEGDTHFPDYEPDDWESVFSEFHDADAQNSHSYCFEILERRPRDSFGGGSGAGAGGGGMFGSGGGG
  Ki: 130 ± 20 µM
